From US20230235013A1 (MABSOLVE, published 2023)
Numbering of substitutions follows the chain as printed. Names and notes keep the numbering of the source.

B1: anti-CD20 human IgG1 L234A/L235S/G236R (antibody)
heavy: not shown
light: QIVLSQSPAILSASPGEKVTMTCRASSSVSYIHWFQQKPGSSPKPWIYATSNLASGVPVRFSGSGSGTSYSLTISRVEAEDAATYYCQQWTSNPPTFGGGTKLEIKRTVAAPSVFIFPPSDEQLKSGTASVVCLLNNFYPREAKVQWKVDNALQSGNSQESVTEQDSKDSTYSLSSTLTLSKADYEKHKVYACEVTHQGLSSPVTKSFNRGEC
notes: also called 2-4; 1-14
B2: anti-CD20 human IgG1 L234R/L235I/G236R (antibody)
heavy: QVQLQQPGAELVKPGASVKMSCKASGYTFTSYNMHWVKQTPGRGLEWIGAIYPGNGDTSYNQKFKGKATLTADKSSSTAYMQLSSLTSEDSAVYYCARSTYYGGDWYFNVWGAGTTVTVSSASTKGPSVFPLAPSSKSTSGGTAALGCLVKDYFPEPVTVSWNSGALTSGVHTFPAVLQSSGLYSLSSVVTVPSSSLGTQTYICNVNHKPSNTKVDKKVEPKSCDKTHTCPPCPAPERIRGPSVFLFPPKPKDTLMISRTPEVTCVVVDVSHEDPEVKFNWYVDGVEVHNAKTKPREEQYNSTYRVVSVLTVLHQDWLNGKEYKCKVSNKALPAPIEKTISKAKGQPREPQVYTLPPSRDELTKNQVSLTCLVKGFYPSDIAVEWESNGQPENNYKTTPPVLDSDGSFFLYSKLTVDKSRWQQGNVFSCSVMHEALHNHYTQKSLSLSPGK
light: B1 light
notes: also called 2-39
B3: anti-CD20 human IgG1 L234G/L235S/G236R (antibody)
heavy: B2 heavy with R238G, I239S
light: B1 light
notes: also called 2-19; 1-59
B4: anti-CD20 human IgG1 L234S/L235G/G236R (antibody)
heavy: B2 heavy with R238S, I239G
light: B1 light
notes: also called 2-47; 1-140
B5: anti-CD20 human IgG1 L234K/L235V/G236R (antibody)
heavy: B2 heavy with R238K, I239V
light: B1 light
notes: also called 2-26; 1-91
B6: anti-CD20 human IgG1 L234T/L235R/G236R (antibody)
heavy: B2 heavy with R238T, I239R
light: B1 light
notes: also called 2-61
B7: anti-CD20 human IgG1 L234T/L235Q/G236R (antibody)
heavy: B2 heavy with R238T, I239Q
light: B1 light
notes: also called 2-60
B8: anti-CD20 human IgG1 L234T/L235K/G236R (antibody)
heavy: B2 heavy with R238T, I239K
light: B1 light
notes: also called 2-58
B9: anti-CD20 human IgG1 L234S/L235H/G236R (antibody)
heavy: B2 heavy with R238S, I239H
light: B1 light
notes: also called 2-48
B10: anti-CD20 human IgG1 L234S/L235R/G236R (antibody)
heavy: B2 heavy with R238S, I239R
light: B1 light
notes: also called 2-51
B11: anti-CD20 human IgG1 L234K/L235S/G236R (antibody)
heavy: B2 heavy with R238K, I239S
light: B1 light
notes: also called 2-24; 1-89
B12: anti-CD20 human IgG1 L234K/L235R/G236R (antibody)
heavy: B2 heavy with R238K, I239R
light: B1 light
notes: also called 2-23; 1-88
B13: anti-CD20 human IgG1 L234R/L235H/G236R (antibody)
heavy: B2 heavy with I239H
light: B1 light
notes: also called 2-38
B14: anti-CD20 human IgG1 L234R/L235K/G236R (antibody)
heavy: B2 heavy with I239K
light: B1 light
notes: also called 2-40
B15: anti-CD20 human IgG1 L234D/L235K/G236R (antibody)
heavy: B2 heavy with R238D, I239K
light: B1 light
notes: also called 2-7; 1-23
B16: anti-CD20 human IgG1 L234Q/L235V/G236R (antibody)
heavy: B2 heavy with R238Q, I239V
light: B1 light
B17: anti-CD20 human IgG1 L234R/L235E/G236R (antibody)
heavy: B2 heavy with I239E
light: B1 light
notes: also called 2-37
B18: anti-CD20 human IgG1 L234T/L235T/G236R (antibody)
heavy: B2 heavy with R238T, I239T
light: B1 light
notes: also called 2-63; 1-165
B19: anti-CD20 human IgG1 L234R/L235R/G236R (antibody)
heavy: B2 heavy with I239R
light: B1 light
notes: also called 2-43
B20: anti-CD20 human IgG1 L234T/L235S/G236R (antibody)
heavy: B2 heavy with R238T, I239S
light: B1 light
notes: also called 2-62
B21: anti-CD20 human IgG1 L234Q/L235A/G236R (antibody)
heavy: not shown
light: B1 light
notes: also called 2-27

Biological target: T1, human FcγRIIIA (F158) (human, UniProt P08637 17-208)
T1 construct: bought; F158 allele
Assay: SPR, FcγRIIIA captured; note: test concentration or dose not given here

T1 sequence (P08637 17-208 limits assumed): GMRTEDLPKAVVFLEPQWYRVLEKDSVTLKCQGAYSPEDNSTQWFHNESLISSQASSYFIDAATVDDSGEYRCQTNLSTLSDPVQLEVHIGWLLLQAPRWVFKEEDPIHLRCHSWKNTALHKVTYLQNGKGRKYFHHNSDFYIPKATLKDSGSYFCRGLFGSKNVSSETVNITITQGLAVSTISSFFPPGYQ

Corrected response (RU) | Binder
6 | B1
2.7 | B2
5.8 | B3
3.8 | B4
5.5 | B5
3.8 | B6
3 | B7
3.5 | B8
3.7 | B9
2.4 | B10
7.3 | B11
7.1 | B12
3.9 | B13
4.4 | B14
3.7 | B15
4.7 | B16
4.6 | B17
17.1 | B18
10.2 | B19
2.5 | B20
4.4 | B21

Biological target: T2, Histidine-tagged recombinant human FcγRI (CD64) (human, UniProt P12314 16-288, limits assumed)
T2 construct: bought
Assay: SPR, His-FcγRI captured; mean;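 note: biacore T200 SPR at 25 °C, anti-His surface capturing FcγRI, Fc-variant antibodies injected at 100 µg/mL for 1 min, signal near injection end minus third buffer blank, three repeats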
Procedure: (§1) Binding analysis was carried out by surface plasmon resonance at 25° C. using a Biacore® T200 instrument with Biacore® T200 control software. The sample compartment was held at 5° C. The running buffer (HBS-EP+) consisted of 0.01 M HEPES pH 7.4, containing 0.15 M NaCl, 3 mM EDTA, and 0.05% v/v Surfactant P20. Methods were run using the manufacturer's standard method wizards as described in the Biacore® T200 Instrument Handbook.
(§2) The cell was activated by treatment with EDC/NHS for 7 min. The antibody was diluted to 10 μg/mL in 10 mM sodium acetate pH 5.0 and injected for 7 min at 5 μL/min. The flow cell was deactivated by injection of 1M ethanolamine for 7 min. This process was repeated in the absence of anti-his antibody on a separate flow cell to generate a reference surface. […] Samples of purified antibodies comprising variant Fc regions (1 mg/mL in PBS) were diluted with running buffer to 100 μg/mL and were injected for 1 min at 30 μL/min and allowed to disassociate for 2 min. Between each cycle, the chip was regenerated by injection of 10 mM glycine pH 3.0 for 0.5 min at a flow rate of 30 μL/min and recharged with a fresh injection of FcγRI. At the beginning of each experiment, three blank cycles were run, with buffer alone being injected instead of test sample. The average SPR signal (relative to the reference cell) was measured in a window approximately 8 to 13 seconds before the injection of test sample (baseline) and approximately 3 to 8 seconds before the end of injection (response). The response of the third of the blank (buffer) samples was subtracted from the response of each test sample in order to allow for any dissociation of the bound FcγRI giving a corrected response for each test sample. The whole experiment was repeated three times with the test samples being analysed in different orders each time.

Corrected response (RU), Mean [RU] | Binder
0.4 | B1
0.1 | B2
2.6 | B4
0.6 | B5
1.8 | B6
3 | B7
2.7 | B8
1.8 | B9
0.8 | B10
2.2 | B12
0.6 | B13
0.2 | B15
2.5 | B16
2.4 | B17
0.7 | B19
1.4 | B20
2.2 | B21

Biological target: T2, Histidine-tagged recombinant human …
Assay: SPR, His-FcγRI captured; Expt 1;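 note: SPR at 25 °C on anti-His antibody chip capturing FcγRI, Fc-variant antibodies injected at 100 µg/mL for 1 min, signal near end of injection minus buffer blank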

Corrected response (RU) | Binder
0 | B1
-0.8 | B2
-0.1 | B3
2.6 | B4
-1.7 | B5
0.2 | B6
2.2 | B7
1.1 | B8
0.4 | B9
-1.1 | B10
-1.7 | B11
0.6 | B12
-1.2 | B13
0 | B14
-1.4 | B15
0.5 | B16
0.9 | B17
1.3 | B18
-0.4 | B19
0.8 | B20

Biological target: T2, Histidine-tagged recombinant human …
Assay: SPR, His-FcγRI captured; Expt 2;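 note: biacore T200 SPR at 25 °C, Fc-variant antibodies at 100 µg/mL flowed 1 min over anti-His-captured receptor, signal read near injection end minus third buffer blank; antibody analyte injected at 100 µg/mL for 1 min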
Procedure: as §1, §2

Corrected response (RU) | Binder
-1.2 | B1
-0.2 | B2
2.7 | B3
0.4 | B5
1.6 | B6
2.3 | B7
2.4 | B8
1.1 | B9
1.1 | B11
0.7 | B13
2.4 | B14
0.1 | B15
2.5 | B16
1.8 | B17
1.8 | B19
0.9 | B20

Biological target: T2, Histidine-tagged recombinant human …
Assay: SPR, His-FcγRI captured; Expt 3;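 note: biacore T200 SPR at 25 °C, Fc-variant antibodies at 100 µg/mL flowed 1 min over anti-His-captured FcγRI, signal taken just before injection end minus a buffer blank cycle; antibody analyte injected at 100 µg/mL for 1 min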
Procedure: as §1, §2

Corrected response (RU) | Binder
2.4 | B1
3.1 | B3
3.7 | B4
3.1 | B5
3.5 | B6
4.5 | B7
4.5 | B8
3.9 | B9
1.6 | B10
4.1 | B11
3.2 | B12
2.3 | B13
3.9 | B14
1.8 | B15
4.5 | B16
4.6 | B17
2.5 | B20
3.6 | B21
